Assay results: US20070015231A1, “Assay for protein tyrosine phosphatases” (CEPTYR, Inc., priority 2000, published 2007)
Changes are numbered by the printed parent chain. In names and notes the source's numbering stands. Read-outs that look alike come from different tables or passages of the source. Each block holds one molecule with its values, some of them ahead of it. Square brackets hold non-standard residues; d marks the D form. Ends that are not written are not given here. pY = N[C@@H](Cc1ccc(OP(=O)(O)O)cc1)C(=O)O

Columns and labels:
PTP1B(C215S) = target: T1, PTP1B(C215S) (Homo sapiens, UniProt P18031, C215S); experiment: PTP-1B (CS) binding assay: fluorescence polarization binding of fluorescein-labeled phosphotyrosyl peptides; conditions: Table 1; midpoint of bound/unbound transition (apparent Kd)
T1 construct: PTP1B proteins (wild type and mutant forms) comprising amino acids 1-321 were expressed in E. coli; made in house; host or cells: E. coli
T1 sequence (P18031 1-321 C215S): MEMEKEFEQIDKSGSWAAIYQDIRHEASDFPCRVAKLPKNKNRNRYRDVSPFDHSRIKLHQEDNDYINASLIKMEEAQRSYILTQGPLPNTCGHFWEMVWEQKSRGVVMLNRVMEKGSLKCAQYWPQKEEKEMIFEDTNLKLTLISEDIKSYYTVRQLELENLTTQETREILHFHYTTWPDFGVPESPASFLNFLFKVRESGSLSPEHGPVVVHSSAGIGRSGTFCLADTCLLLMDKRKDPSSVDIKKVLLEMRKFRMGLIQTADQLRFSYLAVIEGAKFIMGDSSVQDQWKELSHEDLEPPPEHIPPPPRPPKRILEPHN
Method: (§1) Two assay parameters were measured: (1) the dynamic range of the signal (i.e. the difference between polarization values of the bound and the unbound fluorescent substrate) and (2) the midpoint of the transition between bound and unbound that represents the apparent Kd (i.e. affinity) of each binding mutant for each peptide.
(§2) Assays were set up at room temperature in black polypropylene 96 well microtiter plates (Polyfiltronics, Whatman, U. K.) by the sequential addition of 40 μl of Assay Buffer, 40 μl of diluted binding protein and 40 μl of 0.3 nM fluorescein-labeled substrate peptide. After 15 min plates were read in a Criterion Analyst™ (LJL BioSystems, Inc., Sunnyvale, Calif.) in fluorescence polarization detection mode using the parameters listed as follows:
(§3) To obtain values for background fluorescence, assays were set up as above except the fluorescein-labeled substrate was replaced with Assay Buffer. To determine the fluorescence polarization values for the unbound substrate peptide, assays were set up as above except that the 40 μl of diluted binding protein was replaced with Assay Buffer.

PTP1B(D181A) = target: T2, PTP1B(D181A) (Homo sapiens, UniProt P18031, D181A); experiment: PTP-1B (DA) binding assay: fluorescence polarization binding of fluorescein-labeled phosphotyrosyl peptides; conditions: Table 2; midpoint of bound/unbound transition (apparent Kd)
T2 construct: PTP1B proteins (wild type and mutant forms) comprising amino acids 1-321 were expressed in E. coli; made in house; host or cells: E. coli
T2 sequence (P18031 1-321 D181A): T1 sequence (P18031 1-321 C215S) with D181A, S215C
Method: as §1, §2, §3

LAR = LAR (Homo sapiens, UniProt P10586); conditions: insulin receptor 1142-1152 peptide, pTyr1146; cited from earlier work
C215S PTP1B = target: T3, C215S PTP1B (Homo sapiens, UniProt P18031, C215S); experiment: Inhibition of fluorescent EGF receptor peptide binding to CS substrate binding mutant (FP); conditions: Table 3; fluorescein-labeled EGF receptor peptide
T3 construct: PTP1B proteins (wild type and mutant forms) comprising amino acids 1-321 were expressed in E. coli; made in house; host or cells: E. coli
T3 sequence (P18031 1-321 C215S): T1 sequence (P18031 1-321 C215S)
Method: (§4) To the test agents was added 40 μl of 3 nM CS or DA binding mutant of PTP1B in Assay Buffer. Plates were shaken for 30 sec to mix the two solutions. After another 12.5 minutes 40 μl of 3 nM fluorescein-labeled EGF receptor peptide was added and the solutions mixed for 30 sec. After 12.5 minutes of incubation the plates were read as described in Example 3.

D181A PTP1B = target: T4, D181A PTP1B (Homo sapiens, UniProt P18031, D181A); experiment: Inhibition of fluorescent EGF receptor peptide binding to DA substrate binding mutant (FP)
T4 construct: PTP1B proteins (wild type and mutant forms) comprising amino acids 1-321 were expressed in E. coli; made in house; host or cells: E. coli
T4 sequence (P18031 1-321 D181A): T1 sequence (P18031 1-321 C215S) with D181A, S215C
Method: as §4

PTP1B = target: T5, PTP1B (Homo sapiens, UniProt P18031); experiment: PTP catalytic assay of F-ERP-P dephosphorylation with alternate reaction terminator molecules (FP); assay type: biochemical
T5 construct: PTP1B proteins (wild type and mutant forms) comprising amino acids 1-321 were expressed in E. coli; made in house; host or cells: E. coli
T5 sequence (P18031 1-321): T1 sequence (P18031 1-321 C215S) with S215C
Method: The ability of each reaction terminator molecule also was assessed in the presence and absence of vanadate (a well known, nonspecific PTP inhibitor).
Assays were set up in black polypropylene plates with 20 μl of 25 mM Tris HCl pH 7.5 and 20 μl of 300 nM F-ERP-P in 25 mM Tris HCl pH 7.5, 1 mM EDTA, 1 mM DTT, 0.25 mg/ml ovalbumin (TEOD buffer). […] Plates were read using the Polarstar instrument from BMG Lab Technologies using the following settings:
As in Example 3, wells were set up to measure background fluorescence to allow proper calculation of mP values and other wells were set up without addition of terminator reagent to assess the minimum polarization value of the unbound fluorescent phosphotyrosyl peptide (F-ERP-P).

CD45 = target: T6, CD45 (Homo sapiens, UniProt P08575); conditions: p56lck residues 500-509 peptide; read-out: Km toward CD45; cited from earlier work
T6 sequence (P08575 26-1306): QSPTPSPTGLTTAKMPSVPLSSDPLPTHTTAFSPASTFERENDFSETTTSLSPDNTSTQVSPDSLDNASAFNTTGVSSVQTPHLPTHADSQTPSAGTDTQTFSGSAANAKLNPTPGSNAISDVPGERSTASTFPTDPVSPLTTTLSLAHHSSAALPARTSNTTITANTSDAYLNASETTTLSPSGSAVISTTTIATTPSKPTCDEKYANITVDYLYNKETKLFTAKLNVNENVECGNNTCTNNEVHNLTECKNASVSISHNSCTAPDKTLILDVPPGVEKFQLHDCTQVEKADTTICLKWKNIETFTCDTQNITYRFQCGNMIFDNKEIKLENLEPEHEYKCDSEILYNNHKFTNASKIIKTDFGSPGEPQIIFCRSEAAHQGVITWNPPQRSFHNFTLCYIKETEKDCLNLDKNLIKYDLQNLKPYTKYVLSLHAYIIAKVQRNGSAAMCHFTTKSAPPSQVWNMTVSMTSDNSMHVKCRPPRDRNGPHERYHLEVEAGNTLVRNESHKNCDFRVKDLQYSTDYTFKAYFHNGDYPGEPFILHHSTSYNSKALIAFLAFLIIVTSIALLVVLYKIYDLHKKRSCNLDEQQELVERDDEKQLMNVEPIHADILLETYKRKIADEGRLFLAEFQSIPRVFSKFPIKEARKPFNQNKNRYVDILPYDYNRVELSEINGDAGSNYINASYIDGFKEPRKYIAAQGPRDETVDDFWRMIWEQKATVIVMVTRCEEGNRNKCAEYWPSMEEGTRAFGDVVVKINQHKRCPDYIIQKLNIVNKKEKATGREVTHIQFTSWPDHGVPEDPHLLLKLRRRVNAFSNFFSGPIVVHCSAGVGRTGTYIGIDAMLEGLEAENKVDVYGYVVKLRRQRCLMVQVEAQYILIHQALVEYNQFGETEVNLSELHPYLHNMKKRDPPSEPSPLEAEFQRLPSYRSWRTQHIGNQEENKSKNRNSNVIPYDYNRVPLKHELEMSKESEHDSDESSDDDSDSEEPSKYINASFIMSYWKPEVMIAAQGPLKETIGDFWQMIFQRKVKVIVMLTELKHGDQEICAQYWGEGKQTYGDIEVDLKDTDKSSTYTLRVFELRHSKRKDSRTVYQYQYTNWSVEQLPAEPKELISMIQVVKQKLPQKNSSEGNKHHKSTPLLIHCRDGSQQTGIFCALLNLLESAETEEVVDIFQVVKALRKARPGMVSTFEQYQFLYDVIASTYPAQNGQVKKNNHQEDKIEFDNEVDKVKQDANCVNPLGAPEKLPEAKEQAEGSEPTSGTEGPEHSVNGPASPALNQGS

[1] = target: fluorescein-labeled EGF receptor derived phosphopeptide D-A-D-E-pY-L-NH2 (human); experiment: fluorescence polarization, mutant PTP titrated against fluorescein-labeled peptide in solution
[2] = target: fluorescein-labeled insulin receptor derived phosphopeptide T-R-D-I-pY-E-T-D-Y-Y-R (human); experiment: as above
[3] = target: fluorescein-labeled EGF receptor derived phosphopeptide D-A-D-E-pY-L-NH2 (human); experiment: fluorescence polarization, mutant PTP titrated against fluorescein-labeled peptide in solution (midpoint = apparent Kd)
[4] = target: fluorescein-labeled insulin receptor derived phosphopeptide T-R-D-I-pY-E-T-D-Y-Y-R (human); experiment: as above
[5] = target: T7, fluorescein-labeled EGF receptor derived phosphopeptide D-A-D-E-pY-L-NH2 (not fully specified)
T7 chain: DADEYL

[6] = target: fluorescein-labeled EGF receptor derived phosphopeptide D-A-D-E-pY-L-NH2 (human); experiment: fluorescence polarization, C215S PTP1B as reaction terminator (Polarstar reader)
[7] = Table 3, fluorescein-labeled EGF receptor peptide, read-out: D181A IC50

LAR, sequence (P10586 30-1907, species assumed): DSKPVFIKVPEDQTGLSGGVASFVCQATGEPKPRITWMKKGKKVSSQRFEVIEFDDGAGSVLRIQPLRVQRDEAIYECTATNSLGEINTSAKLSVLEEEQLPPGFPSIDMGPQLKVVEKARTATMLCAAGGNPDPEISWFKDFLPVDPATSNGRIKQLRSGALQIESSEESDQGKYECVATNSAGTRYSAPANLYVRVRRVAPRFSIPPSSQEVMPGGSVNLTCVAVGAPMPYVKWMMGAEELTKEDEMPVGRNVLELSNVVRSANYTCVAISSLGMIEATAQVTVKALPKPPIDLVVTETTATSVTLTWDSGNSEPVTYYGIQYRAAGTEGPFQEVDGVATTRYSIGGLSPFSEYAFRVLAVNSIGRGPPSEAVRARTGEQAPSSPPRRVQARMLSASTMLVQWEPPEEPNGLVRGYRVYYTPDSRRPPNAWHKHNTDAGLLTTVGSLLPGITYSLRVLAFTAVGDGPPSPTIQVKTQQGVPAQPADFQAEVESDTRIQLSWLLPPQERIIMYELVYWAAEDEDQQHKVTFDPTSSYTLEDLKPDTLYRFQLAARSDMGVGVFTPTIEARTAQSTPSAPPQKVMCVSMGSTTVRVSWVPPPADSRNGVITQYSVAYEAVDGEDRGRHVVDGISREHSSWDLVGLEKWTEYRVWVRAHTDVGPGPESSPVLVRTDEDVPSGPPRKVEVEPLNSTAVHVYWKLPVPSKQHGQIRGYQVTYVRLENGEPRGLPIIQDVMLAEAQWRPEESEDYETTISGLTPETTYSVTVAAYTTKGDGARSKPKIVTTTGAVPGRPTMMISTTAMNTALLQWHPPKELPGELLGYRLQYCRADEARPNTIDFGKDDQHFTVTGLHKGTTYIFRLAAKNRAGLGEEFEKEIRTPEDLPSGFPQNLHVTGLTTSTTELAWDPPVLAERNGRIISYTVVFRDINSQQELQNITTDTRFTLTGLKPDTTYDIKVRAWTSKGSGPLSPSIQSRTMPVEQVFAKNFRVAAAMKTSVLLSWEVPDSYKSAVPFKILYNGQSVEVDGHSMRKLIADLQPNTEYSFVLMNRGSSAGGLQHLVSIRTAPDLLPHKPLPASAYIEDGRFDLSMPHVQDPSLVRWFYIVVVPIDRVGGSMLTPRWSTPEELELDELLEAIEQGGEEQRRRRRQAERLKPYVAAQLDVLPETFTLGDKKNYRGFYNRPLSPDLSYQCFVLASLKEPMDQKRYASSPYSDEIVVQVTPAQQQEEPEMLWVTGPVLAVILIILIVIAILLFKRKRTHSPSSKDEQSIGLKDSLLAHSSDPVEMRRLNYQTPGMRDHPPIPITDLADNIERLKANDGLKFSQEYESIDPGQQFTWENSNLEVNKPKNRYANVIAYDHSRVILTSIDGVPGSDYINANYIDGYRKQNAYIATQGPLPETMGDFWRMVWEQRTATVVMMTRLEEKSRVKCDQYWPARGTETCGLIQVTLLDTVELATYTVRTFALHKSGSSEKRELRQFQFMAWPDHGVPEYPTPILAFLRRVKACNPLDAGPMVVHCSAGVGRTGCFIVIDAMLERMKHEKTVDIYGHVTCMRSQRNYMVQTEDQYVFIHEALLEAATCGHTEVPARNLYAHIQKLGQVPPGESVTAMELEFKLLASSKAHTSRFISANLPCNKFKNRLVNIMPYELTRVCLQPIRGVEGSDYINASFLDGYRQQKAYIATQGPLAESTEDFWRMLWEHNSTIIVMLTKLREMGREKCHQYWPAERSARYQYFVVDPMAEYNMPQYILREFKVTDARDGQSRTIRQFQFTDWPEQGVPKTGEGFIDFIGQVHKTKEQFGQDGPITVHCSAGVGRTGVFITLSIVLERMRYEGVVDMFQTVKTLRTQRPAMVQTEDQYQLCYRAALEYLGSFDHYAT

EC50 (PTP1B(C215S)): 1.16 nM
EC50 (PTP1B(D181A)): 0.508 nM
Molecule: CC[C@H](C)[C@H](NC(=O)[C@H](CC(=O)O)NC(=O)[C@H](CCCNC(=N)N)NC(=O)[C@@H](NC(=O)c1ccc2c(c1)C(=O)OC21c2ccc(O)cc2Oc2cc(O)ccc21)[C@@H](C)O)C(=O)N[C@@H](Cc1ccc(OP(=O)(O)O)cc1)C(=O)N[C@@H](CCC(=O)O)C(=O)N[C@H](C(=O)N[C@@H](CC(=O)O)C(=O)N[C@@H](Cc1ccc(O)cc1)C(=O)N[C@@H](Cc1ccc(O)cc1)C(=O)N[C@@H](CCCNC(=N)N)C(=O)O)[C@@H](C)O [F-IR-P, T-R-D-1-pY-E-T-D-Y-Y-R]
Km (LAR): 27 µM

Molecule: OO [H2O2, hydrogen peroxide]
IC50 (C215S PTP1B): 250000 nM
IC50 (D181A PTP1B; [7]): 10000 nM
IC50 (D181A PTP1B; read-out: IC50 for inhibition of the DA substrate binding mutant): ~10000 nM

IC50 (C215S PTP1B): 150000 nM
IC50 (D181A PTP1B; [7]): 120000 nM
Molecule: N[C@@H](Cc1ccc(OP(=O)(O)O)cc1)C(=O)O [P-Tyr, phosphotyrosine]

Molecule: [Na+].[Na+].[Na+].[O]=[V]([O-])([O-])[O-] [sodium ortho vanadate]
effect of inclusion in the terminator mixes on observed endpoints (PTP1B; 2 mM in terminator solution with C215S PTP1B or G104): did not appear to have any additive effect

Molecule: A-T-E-G-Q-pY-Q-P-Q-P (ATEGQ[pY]QPQP; also: fluorescein label) [F-lck-P]
Km (CD45): 130 µM

Peak Mp [1]: 269 mP
Peak Mp [2]: 132 mP
EC50 [3]: 1.07 nM
EC50 [4]: 0.508 nM
Molecule: PTP1B(D181A), amino acids 1-321 (from UniProt P18031 1-321) (enzyme)

B1: PTP1B (wild type), amino acids 1-321 (protein)
chain: T1 sequence (P18031 1-321 C215S) with S215C
time to complete dephosphorylation of F-ERP-P (fluorescence polarization catalytic assay) [5]: under these conditions the dephosphorylation of F-ERP-P was complete by 20 minutes

maximum polarization value for bound peptide [6]: 300 mP
Peak mP [1]: 316 mP
Peak mP [2]: 151 mP
EC50 [3]: 0.965 nM
EC50 [4]: 1.16 nM
B2: PTP1B(C215S), amino acids 1-321 (protein)
chain: T1 sequence (P18031 1-321 C215S)
termination of PTP1B-mediated dephosphorylation of F-ERP-P [5]: monoclonal antiphosphotyrosine antibody G104 and the C215S-PTP1B binding mutant were equally effective at stopping the dephosphorylation reaction
stopping of the dephosphorylation reaction (reaction terminator) (PTP1B; reactions stopped after 11 min, polarization stable for 14 hours): equally effective at stopping the dephosphorylation reaction
